Measurements: US20210179717A1 (ALBERT LUDWIGS UNIVERSIT T FREIBURG, published 2021)

Tests used:
[1] = biological target: T1, scrambled peptide sM7 (KLSLEKQTK); experiment: solid phase binding (ELISA) with immobilized peptides
T1 construct: Scrambled control of M7
T1 peptide: KLSLEKQTK
Experimental: (§1) Specific binding was calculated by subtraction of binding of mouse IgG to the peptides.

peptide M8 (EEFRIHFT) = biological target: T2, peptide M8 (EEFRIHFT) (human); experiment: as above
T2 peptide: EEFRIHFT
Experimental: as §1

peptide M7 (EQLKKSKTL) = biological target: T3, peptide M7 (EQLKKSKTL) (human); experiment: solid phase binding assay, immobilized peptide M7
T3 construct: Immobilised peptide from the human Mac-1 αM I-domain
T3 peptide: EQLKKSKTL

[2] = biological target: human Mac-1 (αMβ2, CD11b/CD18), native, non-activated (WT) (human, UniProt P11215 17-1152; P05107 23-769); experiment: western blot of CHO cells over-expressing Mac-1

binding result [1]: no binding
binding result (peptide M8 (EEFRIHFT)): no binding
binding result (peptide M7 (EQLKKSKTL)): binds
binding result [2]: binds
B1: anti-M7 (mouse monoclonal antibody, clone RC3, mouse IgG2bκ) (antibody, V domains shown)
VH: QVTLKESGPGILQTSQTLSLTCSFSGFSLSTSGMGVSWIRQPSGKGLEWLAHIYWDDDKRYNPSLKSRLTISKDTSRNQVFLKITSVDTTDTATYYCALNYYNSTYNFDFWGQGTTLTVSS
VL: DIQMTQSPSSLSASLGERVSLTCRASQEISGYLSWHQQKPDGTIKRLLYSTSTLDSGVPKRFSGSRSGSDYSLTISSLESEDFADYYCLQYAISPPTFGGGTKLEIK
notes: Coupled to Alexa Fluor 647 for flow cytometry; also called anti-M7-Alexa 647
